{
  "source": "paper PMC11246219",
  "biological_target": "PELI2 (UniProt Q9HAT8)",
  "assay": "anti-FLAG co-IP, phospho-STING blot quantified",
  "data": [
    {"substance": "STING (from UniProt Q86WV6) STING-5T>A", "values": [
      {"measurement": "binding against the reference", "setting": "reference: STING only-T354, sites T354", "value": "lost"},
      {"measurement": "binding against the reference", "setting": "reference: STING only-T356, sites T356", "value": "lost"}
    ]}
  ]
}
